Measurements taken from paper PMC4132270, “Compartmentalized self-replication under fast PCR cycling conditions yields Taq DNA polymerase mutants with increased DNA-binding affinity and blood resistance”.

How the values were obtained:
[1] = molecular target: Taq E507K (Thermus aquaticus, UniProt P19821 1-832, E507K); assay: EMSA; 95 mM KCl; 0.25 nM hairpin, 0.5-1000 nM enzyme, 1x Taq buffer (50 mM KCl for wild type, 95 mM KCl for mutants; full composition and pH not stated for this assay), 37 C, 30; settings: protein: recombinant, label: 5' 33P, recessed 3' end, 5' overhang
[2] = molecular target: Taq DNA polymerase (wild type) (Thermus aquaticus, UniProt P19821 1-832); assay: EMSA; 50 mM KCl (enzyme's KCl optimum); 0.25 nM hairpin, 0.5-1000 nM enzyme, 1x Taq buffer (50 mM KCl for wild type, 95 mM KCl for mutants; full composition and pH not stated for this assay), 37 C, 30; settings: protein: recombinant, tags: none (His tag removed, pET11), label: 5' 33P, recessed 3' end, 5' overhang
[3] = molecular target: Taq G59W (Thermus aquaticus, UniProt P19821 1-832, G59W); assay: EMSA; 95 mM KCl (Methods: all assays with Taq mutants); text gives 91 nM; 0.25 nM hairpin, 0.5-1000 nM enzyme, 1x Taq buffer (50 mM KCl for wild type, 95 mM KCl for mutants; full composition and pH not stated for this assay), 37 C, 30; settings: protein: recombinant, label: 5' 33P, recessed 3' end, 5' overhang

B1: hairpin primer-template (structured_DNA)
DNA: CTCCAGACACGACGCAGTTGCCCGATGGTCGACGTTCGCGAAAGCGAACGTCGACCATCGGGCAACT
modifications: 3' end blocked with dideoxy TMP (3' ddT; unclear whether the printed 3' T is the ddT or it is added)
[1]
  Kd: 0.0011 µM
[2]
  Kd: 0.102 µM
[3]
  Kd: 0.0916 µM
